Test results as given in patent US6492139 (Genentech, dated 2002).

Assays:
[1] = target: T1, Flag tagged rSmo (rat Smoothened with C-terminal Flag epitope tag) (rat, UniProt P97698 33-793); test: staining of transfected cells exposed to tagged ligand
T1 construct: Expressed transiently in COS-7 or 293 cells from pRK5

[2] = target: T2, dSmo (Drosophila Smoothened, epitope tagged) (Drosophila, UniProt P91682 32-1036); test: as above
T2 construct: also called dro.smo
T2 sequence: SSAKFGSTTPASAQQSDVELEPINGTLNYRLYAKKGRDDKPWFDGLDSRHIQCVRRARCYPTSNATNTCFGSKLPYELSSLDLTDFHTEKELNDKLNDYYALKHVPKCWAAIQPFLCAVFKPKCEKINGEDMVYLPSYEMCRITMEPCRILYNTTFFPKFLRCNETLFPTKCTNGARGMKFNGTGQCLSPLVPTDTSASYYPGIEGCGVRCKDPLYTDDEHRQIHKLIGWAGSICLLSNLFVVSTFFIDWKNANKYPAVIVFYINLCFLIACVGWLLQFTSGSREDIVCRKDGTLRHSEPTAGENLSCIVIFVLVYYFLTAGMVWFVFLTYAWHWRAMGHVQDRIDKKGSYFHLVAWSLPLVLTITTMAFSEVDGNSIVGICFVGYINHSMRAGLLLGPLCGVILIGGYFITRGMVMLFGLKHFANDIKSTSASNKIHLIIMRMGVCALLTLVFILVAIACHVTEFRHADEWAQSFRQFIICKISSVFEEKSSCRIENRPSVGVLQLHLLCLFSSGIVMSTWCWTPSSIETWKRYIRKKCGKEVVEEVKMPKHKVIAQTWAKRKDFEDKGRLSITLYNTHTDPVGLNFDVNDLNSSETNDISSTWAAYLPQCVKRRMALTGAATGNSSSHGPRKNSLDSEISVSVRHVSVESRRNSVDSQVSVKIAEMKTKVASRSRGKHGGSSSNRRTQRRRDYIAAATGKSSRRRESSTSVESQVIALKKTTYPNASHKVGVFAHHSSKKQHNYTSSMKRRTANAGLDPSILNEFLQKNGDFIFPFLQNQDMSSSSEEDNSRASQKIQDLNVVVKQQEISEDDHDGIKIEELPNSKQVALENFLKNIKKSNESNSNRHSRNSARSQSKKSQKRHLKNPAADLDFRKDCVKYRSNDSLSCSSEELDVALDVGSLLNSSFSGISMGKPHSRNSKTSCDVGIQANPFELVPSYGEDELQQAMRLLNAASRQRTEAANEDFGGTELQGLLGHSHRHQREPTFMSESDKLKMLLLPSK

T1 sequence (P97698 33-793): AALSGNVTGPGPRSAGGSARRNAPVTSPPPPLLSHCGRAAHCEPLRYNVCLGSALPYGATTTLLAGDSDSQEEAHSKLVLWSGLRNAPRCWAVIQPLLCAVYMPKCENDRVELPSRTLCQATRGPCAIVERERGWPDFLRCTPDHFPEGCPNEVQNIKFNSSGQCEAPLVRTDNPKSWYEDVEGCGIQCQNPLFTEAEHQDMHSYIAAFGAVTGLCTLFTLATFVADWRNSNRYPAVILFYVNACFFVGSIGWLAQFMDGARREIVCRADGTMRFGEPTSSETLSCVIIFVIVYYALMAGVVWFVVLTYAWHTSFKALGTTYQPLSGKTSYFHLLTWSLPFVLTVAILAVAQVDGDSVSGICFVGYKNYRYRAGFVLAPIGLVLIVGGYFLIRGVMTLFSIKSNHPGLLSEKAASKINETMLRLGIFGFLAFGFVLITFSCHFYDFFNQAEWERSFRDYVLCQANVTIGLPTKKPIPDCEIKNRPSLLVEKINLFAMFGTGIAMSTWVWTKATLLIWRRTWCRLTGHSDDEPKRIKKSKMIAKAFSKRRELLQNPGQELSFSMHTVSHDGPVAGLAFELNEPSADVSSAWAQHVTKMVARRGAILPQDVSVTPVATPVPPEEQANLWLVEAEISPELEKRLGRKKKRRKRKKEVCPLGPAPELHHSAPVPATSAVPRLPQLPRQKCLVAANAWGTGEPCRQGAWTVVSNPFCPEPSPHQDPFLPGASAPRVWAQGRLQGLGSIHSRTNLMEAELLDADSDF

B1: epitope tagged Desert HH (ligand, not shown: small tags and cut ends)
chain: not shown
[1]
  binding result: no binding
[2]
  binding result: no binding
